From patent publication CN101228187A come the findings set out here.

Experiment [1] addresses T1, FRHSVV peptide, common epitope of mutant p53 (biotinylated) (human). The experiment is described as follows: BIAcore (SPR), data not shown.
Experiment [2] has as its target T1, FRHSVV peptide, common epitope of …. The experiment is described as follows: BIAcore (SPR), biotinylated peptide on streptavidin SA chip, scFv injected, 1:1 Langmuir model.

B1: A6 scFv (scFv)
scFv: VQLLESGGGLVQPGGSPRLSCAASGFTFSGYWMHWVRQAPGKGLEWVSEISGSGDSTHYGDSVKGRFTISRDNSKNTLYLQMNSLRAEDTAVYYCARGRNGSLDYWGQGTLVTVSSGSAGGGGSGGGGSGGGGSDIVLTQPPSASGTPGQRVTISCTGGRFNIGDYAVNWYQQLPGKAPKLLIYDNDRRPSGVSDRFSGSKSGTSASLAISGLRSEDEADYYCAAWDDSLDGLVFGGGTQLTV
B1 had a dissociation constant (Kd) in experiment [1] of 23 nM. This counts as double-digit nanomolar.

B2: F2 scFv (scFv)
scFv: VQLLESGGGLVQPGGSLRLSCAASGFTFSGYWMHWVRQAPGKGLEWVSEISGSGDSTHYGDSVKGRFTISRDNSKNTLYLQMNSLRAEDTAVYYCARGRNGSLDYWGQGTLVTVSSGSAGGGGSGGGGSGGGGSDIVLTQPPSASGTPGQRVTISCSGTSSNIGADYDVHWYQQLPGKAPKLLIYDNNKRPSGVSDRFSGSKSGTSASLAISGLRSEDEADYYCAAWDSSLSSVVFGGGTQLTV
For the molecule B2, in experiment [2], the Kd was determined as 11 nM.
